The target in assay [1] is human type I5E receptor expressed on CHO cells (I5E-4 cells) (human, UniProt Q8NFJ6 1-384). Briefly: cell-based or functional assay.
Assay [2] deals with human type ZAQ (G protein-conjugated receptor protein ZAQ) expressed on CHO cells (ZAQC-B1 cells) (human, UniProt Q8TCW9 1-393). Nature of the assay: cell-based or functional assay.
Sequence of human type ZAQ (G protein-conjugated receptor protein ZAQ) expressed on CHO cells (ZAQC-B1 cells) (Q8TCW9 whole entry): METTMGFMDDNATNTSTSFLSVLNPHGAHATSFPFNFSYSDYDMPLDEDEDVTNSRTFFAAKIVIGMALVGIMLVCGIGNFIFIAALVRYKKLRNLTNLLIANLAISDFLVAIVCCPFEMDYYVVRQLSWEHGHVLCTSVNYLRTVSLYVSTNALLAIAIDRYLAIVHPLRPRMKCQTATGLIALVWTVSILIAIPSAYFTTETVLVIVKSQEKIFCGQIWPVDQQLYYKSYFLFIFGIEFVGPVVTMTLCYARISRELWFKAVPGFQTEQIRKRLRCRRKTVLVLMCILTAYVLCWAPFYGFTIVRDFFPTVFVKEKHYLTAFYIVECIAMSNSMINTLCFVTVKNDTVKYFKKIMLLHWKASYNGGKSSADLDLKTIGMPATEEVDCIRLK

Sequence of human type I5E receptor expressed on CHO cells (I5E-4 cells) (Q8NFJ6 whole entry): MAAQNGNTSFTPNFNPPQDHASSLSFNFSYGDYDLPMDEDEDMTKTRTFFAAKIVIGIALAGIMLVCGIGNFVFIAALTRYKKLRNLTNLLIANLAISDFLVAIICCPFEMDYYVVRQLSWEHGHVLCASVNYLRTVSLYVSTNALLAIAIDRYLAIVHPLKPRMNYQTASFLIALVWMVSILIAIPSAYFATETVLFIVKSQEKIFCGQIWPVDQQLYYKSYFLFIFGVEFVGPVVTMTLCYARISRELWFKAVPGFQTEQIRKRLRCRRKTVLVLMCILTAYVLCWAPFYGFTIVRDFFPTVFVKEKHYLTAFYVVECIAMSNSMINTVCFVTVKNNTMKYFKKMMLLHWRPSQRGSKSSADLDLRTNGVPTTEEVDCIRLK

B1: snake venom MIT1 (ligand)
chain: AVITGACERDLQCGKGTCCAVSLWIKSVRVCTPVGTSGEDCHPASHKIPFSGQRMHHTCPCAPNLACVQTSPKKFKCLSK
For the molecule B1, in assay [1], the “action to activate a human type I5E receptor, relative to the human type ZAQ ligand peptide (FLIPR)” value is ~100 times greater than the human type ZAQ ligand peptide and the “action to activate an I5E receptor, relative to the human type Bv8 peptide (FLIPR)” value is 10 times greater than the human type Bv8 peptide. In addition, in assay [2], the “action to activate a ZAQ receptor, relative to the human type ZAQ ligand peptide (FLIPR)” value is 10 times greater than the human type ZAQ ligand peptide.

B2: human type ZAQ ligand mature peptide (type G, 86 amino acid residues) (ligand)
chain: AVITGACERDVQCGAGTCCAISLWLRGLRMCTPLGREGEECHPGSHKVPFFRKRKHHTCPCLPNLLCSRFPDGRYRCSMDLKNINF
For the molecule B2, the “EC50 of the increase of intracellular calcium concentration in ZAQ expression CHO cells (ZAQC-B1 cells), FLIPR” value in assay [2] is 96 pM.
